From patent US20220275357A1, “CAPSULE PROTEIN AND MULTIMERIC COMPLEX COMPOSITION THEREOF, AND PHARMACEUTICAL COMPOSITION USING SAME” (UNIVERSITY PUBLIC CORPORATION OSAKA, priority 2019, published 2022) come the findings set out here.

Holding throughout (format): physicochemical
Data set [1] is described as follows: Size measurement by small-angle X-ray scattering (SAXS). To be noted: 25° C.; for Rg: radius of gyration from Guinier region. The procedure:
Size of the obtained octameric composition was measured by small-angle X-ray scattering (SAXS). For comparison, size of the mutant L-PGDS was also measured.
SAXS data collection was carried out at BL40B2, a beamline in the SPring-8 synchrotron radiation facility (Sayo-gun, Hyogo). The X-ray wavelength was tuned to 1.000 A (angstrom), the sample-to-detector distance was set to 2.193 m, and the experiments were performed at 25° C. The exposure times for each measurement were 20 to 50 s. Scattering intensity was recorded with PILATUS-2M (RIGAKU, Tokyo) as a detector.
A sample cell with a thickness of 3.0 mm was used to maximize scattering of X-ray. The windows of the cell were made of 0.02 mm thick quartz plates. To avoid systematic errors, the inventor measured the sample (protein) and buffer solutions alternately. 25 μL of a sample solution was placed in the cell for its data collection. The solution was removed from the cell; and the cell was then washed 3 times with a buffer solution before data collection of the next sample solution.
Two-dimensionally recorded scattering patterns of the protein sample and the buffer solutions were transformed to a one-dimensional profile by circular averaging. Contributions to scattering intensities from the solvent were eliminated from the raw data of the sample solutions by subtracting the intensity profile obtained for the buffer solution. Scattering profiles in the small-angle region were analyzed by Guinier's approximation for monodispersive systems: The scattering intensity (I (S,C)) as a function of reciprocal vector (S) and protein concentration (C), is expressed by the forward scattering intensity (I(0,C)) and the radius of gyration Rg(C) (See the following formula (1)).
wherein, 2θ represents the scattering angle relative to the incident beam, and λ represents the X-ray wavelength.
The radius of gyration Rg for each sample solution was calculated from Guinier region in its scattering profile. […]

Data set [2] in a line: Equilibrium dialysis of dipyridamole-loaded capsule proteins (holding force). To be noted: dipyridamole encapsulated instead of SN-38, external solution PBS, FIG. 10. As to the method:
(§1) With a dialysis membrane (Dialysis Membrane, Size 27 Wako molecular weight cut-off: 14,000), each 5 mL of samples was each dialyzed against 150 mL of PBS as an external solution in an incubator at 37° C. for 72 hours. Each of the samples included the solution of SN-38/mutant L-PGDS, SN-38/barrier-attached D-clip mutant or SN-38/targeting barrier-attached D-clip mutant. The samples were prepared to contain 50 uM of SN-38 and 50 uM of the respective capsule proteins.
(§2) At 0, 1, 3, 6, 8, 12, 24, 36, 48, 60, and 72 hours after the start of dialysis, 500 μL of the external solution was sampled, and the same amount of PBS was added instead. SN-38 concentration in the sampled external solutions was measured with a fluorescence spectrophotometer F-7000 (HITACHI; excitation wavelength: 365 nm; measuring wavelength: 380 to 600 nm; and monitoring temperature: 37° C.).
Dipyridamole is a poorly water-soluble antianginal drug. The external solution was PBS. Referring to FIG. 10, the horizontal and the left vertical axes represent the reaction time (hr) and dipyridamole concentration (nM), respectively. In addition, the right vertical axis represents the release rate (%), or a value converted from the concentration on the left vertical axis.

Data set [3] is described as follows: Drug releasing capacity: equilibrium dialysis of SN-38-loaded capsule proteins. As to the method:
as §1, §2
Subsequently, drug release function in response to a reducing environment of the barrier-attached D-clip mutant and the targeting barrier-attached D-clip mutant was evaluated by equilibrium dialysis method in the same manner as described above. PBS and 10 mM DTT/PBS solutions were used as the external solutions for dialysis. The external PBS and 10 mM DTT/PBS solutions simulated oxidizing and reducing environments, respectively.
The horizontal axis represents reaction time (hr), and the vertical axis represents SN-38 concentration (nM). Error bars represent the standard error of the mean, or mean±standard error (n=3). The abbreviations or symbols in the figure have the following meanings: “SN-38/L-PGDS” or “●” represents SN-38/mutant L-PGDS; “SN-38/Capsule” or “▴” represents SN-38/barrier-attached D-clip mutant; and “SN-38/Cap-sCRGDK” or “▪” represents SN-38/targeting barrier-attached D-clip mutant. The symbols “Δ” and “□” with“+10 mM DTT” represent the results of the pharmaceutical compositions, i.e.“SN-38/Capsule” and “SN-38/Cap-sCRGDK” in the presence of 10 mM DTT, respectively. The addition of DTT (Dithiothreitol) allows the solutions to have a strong reducing environment. […]
(Equilibrium dialysis compares concentrations on both sides of a semipermeable membrane.)

Where a chain is given by its changes, count along the chain named. Names and notes keep the numbering of the source. Bounds are passed on as bounds.

B1: mutant L-PGDS: human L-PGDS variant SEQ ID NO: 2 with C45A and C147A substitutions, GS added to N-terminus (protein)
chain: GSAPEAQVSVQPNFQQDKFLGRWFSAGLASNSSWLREKKAALSMAKSVVAPATDGGLNLTSTFLRKNQCETRTMLLQPAGSLGSYSYRSPHWGSTYSVSVVETDYDQYALLYSQGSKGPGEDFRMATLYSRTQTPRAELKEKFTAFAKAQGFTEDTIVFLPQTDKCMTEQ
modifications: N-terminal GS added; Enzyme inactivation Mutant
Take B1: in data set [1], the Dmax turned out to be 4.75 nm. Further, the Rg in data set [1] (listed as Monomer) was 1.8 ± 0.04 nm; in data set [1] (listed as monomer (mutant L-PGDS)), 1.8±0.04 nm. For the same molecule, the “dipyridamole concentration in external solution” value in data set [2] is recorded as “increased over the reaction time”. The “concentration of SN-38 in the external DTT/PBS solution” value in data set [3] (10 mM DTT/PBS, reached within shorter reaction time, then almost a plateau, FIG. 9(a)) was found to be 2000 nM.

B2: barrier-attached mutant (protein)
chain: B1 chain with M74W
modifications: Barrier Mutant
For B2, the “dipyridamole concentration in external solution” value in data set [2] is on record as “increased only to the vicinity of the detection limit”. In addition, the “SN-38 concentration in the external DTT/PBS solution” value in data set [3] (10 mM DTT/PBS, at the first 48 hours of dialysis, FIG. 9(b)) is on record as “approximately 2.0 μM”. In addition, the “concentration of SN-38 in the external solution PBS” value in data set [3] (PBS, at the end of the monitoring period, FIG. 9(b)) is at most 1000 nM.
